Assays:
[1] = biological target: odd-2 (C34H3.2) (Caenorhabditis elegans) (UniProt Q9N5X6)
[2] = biological target: ZC328.2 (ZC328.2) (Caenorhabditis elegans) (UniProt O02050)
[3] = biological target: egrh-1 (C27C12.2) (Caenorhabditis elegans) (UniProt Q18250)
[4] = biological target: T1, B0310.2 (B0310.2) (Caenorhabditis elegans) (UniProt Q10938)
T1 sequence: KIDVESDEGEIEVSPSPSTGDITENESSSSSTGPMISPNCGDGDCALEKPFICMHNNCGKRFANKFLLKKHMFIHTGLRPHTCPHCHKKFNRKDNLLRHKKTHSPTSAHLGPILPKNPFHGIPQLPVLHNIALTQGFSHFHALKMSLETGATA

[5] = biological target: T2, ZK337.2 (ZK337.2) (Caenorhabditis elegans) (UniProt O46016)
T2 sequence: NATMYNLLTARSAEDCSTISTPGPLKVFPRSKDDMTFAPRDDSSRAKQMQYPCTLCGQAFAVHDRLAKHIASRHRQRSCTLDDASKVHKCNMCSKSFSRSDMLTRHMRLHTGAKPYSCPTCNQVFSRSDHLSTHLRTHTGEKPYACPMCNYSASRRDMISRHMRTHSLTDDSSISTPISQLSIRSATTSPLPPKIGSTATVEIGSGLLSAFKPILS

[6] = biological target: T3, die-1 (C18D1.1) (Caenorhabditis elegans) (UniProt A0A131MCR4)
T3 sequence: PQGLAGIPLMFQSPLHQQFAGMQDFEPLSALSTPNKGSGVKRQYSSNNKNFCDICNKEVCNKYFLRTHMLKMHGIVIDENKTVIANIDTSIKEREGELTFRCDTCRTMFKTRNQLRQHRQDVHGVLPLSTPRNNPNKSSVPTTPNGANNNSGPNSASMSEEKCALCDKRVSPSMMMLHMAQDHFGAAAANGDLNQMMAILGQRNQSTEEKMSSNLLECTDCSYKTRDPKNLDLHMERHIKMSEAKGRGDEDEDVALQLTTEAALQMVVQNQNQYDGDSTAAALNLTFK

[7] = biological target: T4, zip-3 (W07G1.3) (Caenorhabditis elegans) (UniProt Q9XUK2)
T4 sequence: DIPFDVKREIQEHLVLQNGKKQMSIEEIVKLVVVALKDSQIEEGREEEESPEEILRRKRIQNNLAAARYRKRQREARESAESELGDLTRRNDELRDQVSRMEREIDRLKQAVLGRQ

[8] = biological target: atf-7 (C07G2.2) (Caenorhabditis elegans) (UniProt Q86MD3)
Chain of atf-7 (C07G2.2) (Caenorhabditis elegans) (Q86MD3 339-508): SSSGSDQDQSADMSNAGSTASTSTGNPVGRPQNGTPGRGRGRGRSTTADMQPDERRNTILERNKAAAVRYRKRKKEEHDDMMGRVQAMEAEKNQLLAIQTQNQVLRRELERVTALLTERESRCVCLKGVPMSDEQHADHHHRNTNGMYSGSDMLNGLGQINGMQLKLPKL

[9] = biological target: T5, atf-5 (T04C10.4) (Caenorhabditis elegans) (UniProt Q22156)
T5 sequence: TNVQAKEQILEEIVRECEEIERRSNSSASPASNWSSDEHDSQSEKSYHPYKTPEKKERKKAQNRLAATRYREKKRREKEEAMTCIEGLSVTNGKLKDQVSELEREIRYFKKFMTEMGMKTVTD

[10] = biological target: T6, ham-2 (C07A12.1) (Caenorhabditis elegans) (UniProt H2KYH4)
T6 sequence: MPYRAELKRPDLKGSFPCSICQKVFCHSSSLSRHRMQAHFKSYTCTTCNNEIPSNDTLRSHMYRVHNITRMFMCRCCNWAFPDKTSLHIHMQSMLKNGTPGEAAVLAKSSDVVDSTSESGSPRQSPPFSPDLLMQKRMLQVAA

[11] = biological target: T7, ztf-19 (T27B1.2) (Caenorhabditis elegans) (UniProt Q22829)
T7 sequence: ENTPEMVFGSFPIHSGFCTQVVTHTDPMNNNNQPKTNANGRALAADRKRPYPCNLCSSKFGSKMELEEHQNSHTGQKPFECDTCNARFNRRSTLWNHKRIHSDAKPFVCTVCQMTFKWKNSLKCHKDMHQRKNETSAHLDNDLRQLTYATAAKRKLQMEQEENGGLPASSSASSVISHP

[12] = biological target: T8, ztf-29 (Y66D12A.12) (Caenorhabditis elegans) (UniProt Q95Q03)
T8 sequence: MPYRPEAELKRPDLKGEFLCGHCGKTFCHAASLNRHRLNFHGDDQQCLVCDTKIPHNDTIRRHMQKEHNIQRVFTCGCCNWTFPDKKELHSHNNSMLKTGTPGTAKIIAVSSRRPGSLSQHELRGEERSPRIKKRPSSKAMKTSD

Chain of egrh-1 (C27C12.2) (Caenorhabditis elegans) (Q18250 324-461): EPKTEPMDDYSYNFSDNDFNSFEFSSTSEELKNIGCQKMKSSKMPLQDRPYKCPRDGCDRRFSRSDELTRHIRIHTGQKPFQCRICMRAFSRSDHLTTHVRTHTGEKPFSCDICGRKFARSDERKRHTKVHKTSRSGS
Chain of odd-2 (C34H3.2) (Caenorhabditis elegans) (Q9N5X6 74-252): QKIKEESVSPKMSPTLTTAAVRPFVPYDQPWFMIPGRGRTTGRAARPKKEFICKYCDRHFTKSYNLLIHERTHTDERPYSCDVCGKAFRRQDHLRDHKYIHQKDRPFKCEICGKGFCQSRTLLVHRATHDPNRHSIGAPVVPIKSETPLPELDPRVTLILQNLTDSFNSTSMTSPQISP
Chain of ZC328.2 (ZC328.2) (Caenorhabditis elegans) (O02050 entry or part of it): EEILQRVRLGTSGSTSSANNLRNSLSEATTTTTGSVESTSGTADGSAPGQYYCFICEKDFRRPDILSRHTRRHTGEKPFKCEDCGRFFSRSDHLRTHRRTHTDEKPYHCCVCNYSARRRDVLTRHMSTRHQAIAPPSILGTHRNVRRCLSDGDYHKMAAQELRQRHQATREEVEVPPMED

Sequence: ACGGAAGC (double strand) [8-mer ACGGAAGC]
- binding signal (PBM E-score (-0.5 to 0.5)) [1]: 0.485

Sequence: ACCCCCGC (double strand) [8-mer ACCCCCGC]
- binding signal (PBM E-score (-0.5 to 0.5)) [2]: 0.492
- binding signal (PBM E-score (-0.5 to 0.5)) [3]: 0.485

Sequence: ACCTCACT (double strand) [8-mer ACCTCACT]
- binding signal (PBM E-score (-0.5 to 0.5)) [4]: 0.478

Sequence: AACCTCAA (double strand) [8-mer AACCTCAA]
- binding signal (PBM E-score (-0.5 to 0.5)) [4]: 0.483

Sequence: GCTACTGA (double strand) [8-mer GCTACTGA]
- binding signal (PBM E-score (-0.5 to 0.5)) [1]: 0.486

Sequence: GTGAGGGA (double strand) [8-mer GTGAGGGA]
- binding signal (PBM E-score (-0.5 to 0.5)) [4]: 0.478

Sequence: ACAGTAGC (double strand) [8-mer ACAGTAGC]
- binding signal (PBM E-score (-0.5 to 0.5)) [1]: 0.499

Sequence: CGCCCCCA (double strand) [8-mer CGCCCCCA]
- binding signal (PBM E-score (-0.5 to 0.5)) [5]: 0.494
- binding signal (PBM E-score (-0.5 to 0.5)) [3]: 0.493

Sequence: GTTTAAAA (double strand) [8-mer GTTTAAAA]
- binding signal (PBM E-score (-0.5 to 0.5)) [6]: 0.471

Sequence: CGCCCCCG (double strand) [8-mer CGCCCCCG]
- binding signal (PBM E-score (-0.5 to 0.5)) [5]: 0.49
- binding signal (PBM E-score (-0.5 to 0.5)) [2]: 0.489
- binding signal (PBM E-score (-0.5 to 0.5)) [3]: 0.496

Sequence: ATGACGTC (double strand) [8-mer ATGACGTC]
- binding signal (PBM E-score (-0.5 to 0.5)) [7]: 0.493
- binding signal (PBM E-score (-0.5 to 0.5)) [8]: 0.497
- binding signal (PBM E-score (-0.5 to 0.5)) [9]: 0.468

Sequence: AGCTAGCT (double strand) [8-mer AGCTAGCT]
- binding signal (PBM E-score (-0.5 to 0.5)) [10]: 0.488

Sequence: TTTTAAAA (double strand) [8-mer TTTTAAAA]
- binding signal (PBM E-score (-0.5 to 0.5)) [6]: 0.494

Sequence: CGCCCACG (double strand) [8-mer CGCCCACG]
- binding signal (PBM E-score (-0.5 to 0.5)) [5]: 0.492
- binding signal (PBM E-score (-0.5 to 0.5)) [3]: 0.495

Sequence: ATTTAAAA (double strand) [8-mer ATTTAAAA]
- binding signal (PBM E-score (-0.5 to 0.5)) [6]: 0.481

Sequence: GTTTAAAC (double strand) [8-mer GTTTAAAC]
- binding signal (PBM E-score (-0.5 to 0.5)) [6]: 0.481
- binding signal (PBM E-score (-0.5 to 0.5)) [11]: 0.494

Sequence: CCCCCACA (double strand) [8-mer CCCCCACA]
- binding signal (PBM E-score (-0.5 to 0.5)) [3]: 0.489

Sequence: ACCTCAAT (double strand) [8-mer ACCTCAAT]
- binding signal (PBM E-score (-0.5 to 0.5)) [4]: 0.49

Sequence: ATTTAAAC (double strand) [8-mer ATTTAAAC]
- binding signal (PBM E-score (-0.5 to 0.5)) [6]: 0.484

Sequence: ATGCTTAA (double strand) [8-mer ATGCTTAA]
- binding signal (PBM E-score (-0.5 to 0.5)) [10]: 0.48

Sequence: GATTTAAA (double strand) [8-mer GATTTAAA]
- binding signal (PBM E-score (-0.5 to 0.5)) [6]: 0.477

Sequence: AAAGCTTA (double strand) [8-mer AAAGCTTA]
- binding signal (PBM E-score (-0.5 to 0.5)) [10]: 0.481
- binding signal (PBM E-score (-0.5 to 0.5)) [12]: 0.485

Sequence: GTGAGGTA (double strand) [8-mer GTGAGGTA]
- binding signal (PBM E-score (-0.5 to 0.5)) [4]: 0.485

Sequence: CCCCCGCG (double strand) [8-mer CCCCCGCG]
- binding signal (PBM E-score (-0.5 to 0.5)) [2]: 0.488
- binding signal (PBM E-score (-0.5 to 0.5)) [3]: 0.485

Sequence: ATCCCTCA (double strand) [8-mer ATCCCTCA]
- binding signal (PBM E-score (-0.5 to 0.5)) [4]: 0.482

Sequence: ATACCTCA (double strand) [8-mer ATACCTCA]
- binding signal (PBM E-score (-0.5 to 0.5)) [4]: 0.485

Sequence: AGTTTAAA (double strand) [8-mer AGTTTAAA]
- binding signal (PBM E-score (-0.5 to 0.5)) [6]: 0.49
- binding signal (PBM E-score (-0.5 to 0.5)) [11]: 0.495

Sequence: CCCACGCG (double strand) [8-mer CCCACGCG]
- binding signal (PBM E-score (-0.5 to 0.5)) [2]: 0.49
- binding signal (PBM E-score (-0.5 to 0.5)) [3]: 0.486

Sequence: CCTCAATC (double strand) [8-mer CCTCAATC]
- binding signal (PBM E-score (-0.5 to 0.5)) [4]: 0.477

Sequence: GCCCACGC (double strand) [8-mer GCCCACGC]
- binding signal (PBM E-score (-0.5 to 0.5)) [2]: 0.485
- binding signal (PBM E-score (-0.5 to 0.5)) [3]: 0.495

Sequence: ATGCTAAT (double strand) [8-mer ATGCTAAT]
- binding signal (PBM E-score (-0.5 to 0.5)) [10]: 0.478

Reference: PMC4434323
